Source: patent publication US6436691B1, “Chemical compounds” (Zeneca Limited, priority 1995, dated 2002)
Substitutions are numbered along the chain they refer to. Numbers in names are those of the source.

Columns and labels:
[1] = Conversion of Hipp-Asp to hippuric acid by mutant and native human CPB, HPLC assay (Example 6); type: biochemical; details: 5 hr at 37° C.; 4 μg enzyme; 0.5 mM substrate
Procedure: (§1) Purified mutants of human CPB (D253K and D253R; Examples 1-3) and native human CPB, produced as described in Reference Example 12, were assayed for their ability to convert either hippuryl-L-aspartic acid (Hipp-Asp—Reference Example 2), hippuryl-L-glutamic acid (Hipp-Glu—Reference Example 1) or hippuryl-L-arginine (Sigma Chemical Company—cat no. H6625) to hippuric acid using a HPLC based assay.
(§2) The reaction mixture (250 μl) contained 4 μg human CPB (native or mutant) and 0.5 mM Hipp-Asp or Hipp-Glu in 0.025 M Tris-HCL, pH 7.5. Samples were incubated for 5 hr at 37° C. The reactions were terminated by the addition of 250 μl of 80% methanol, 20% distilled water, 0.2% trifluoro acetic acid and the amount of hippuric acid generated was quantified by HPLC.
(§3) HPLC analysis was carried out using a Hewlett Packard 1090 Series 11 (with diode array) HPLC system. Samples (50 μl) were injected onto a Hichrom Hi-RPB column (25 cm) and separated using a mobile phase of 40% methanol, 60% distilled water, 0.1% trifluoro acetic acid at a flow rate of 1 ml/min. The amount of product (hippuric acid) produced was determined from calibration curves generated with known amounts of hippuric acid (Sigma-H6375). The results are shown in Table 1 and are expressed as the percentage conversion of substrate into product in 5 hr at 37° C. with 4 μg enzyme.

[2] = Conversion of Hipp-Glu to hippuric acid by mutant and native human CPB, HPLC assay (Example 6); type: biochemical; details: 5 hr at 37° C.; 4 μg enzyme; 0.5 mM substrate
Procedure: as §1, §2, §3

[3] = Conversion of Hipp-Arg to hippuric acid by mutant and native human CPB, HPLC assay (Example 6); type: biochemical; details: 5 hr at 37° C.; 4 μg enzyme
Procedure: as §1, §2, §3

[4] = Km and kcat of HCPB mutants with Hipp-Asp (Example 7); type: biochemical; details: Hipp-Asp 0.25-5.0 mM; pH 7.5; 5 h at 37° C.
Procedure: (§4) Hipp-Glu and Hipp-Asp were diluted in range 0.25-8.0 mM and 0.25-5.0 mM respectively in 0.025 M Tris-HCL buffer, pH 7.5. Where necessary substrate samples were adjusted to pH 7.5 with 1M NaOH.
(§5) Samples were incubated for 5 h at 37° C. Reactions were terminated by the addition of 500 μl methanol/distilled water (80/20) containing 0.2% TFA. The amount of hippuric acid produced was quantified by HPLC as described in Example 6.
(§6) Km and Vmax values were calculated using the ENZFITTER software programme (Biosoft, Perkin Elmer).

[5] = Km and kcat of HCPB mutants with Hipp-Glu (Example 7); type: biochemical; details: Hipp-Glu 0.25-8.0 mM; pH 7.5; 5 h at 37° C.
Procedure: as §4, §5, §6

[6] = Conversion of glutamic acid prodrug to intermediate by mutant and native HCPB, HPLC assay (Example 8); type: biochemical; details: prodrug 0.25-5.0 mM
[7] = Conversion of Hipp-Glu by purified HCPB mutants, 30 minutes, HPLC (Example 17); type: biochemical; details: 0.5 mM substrate, 30 minutes at 37° C.
Procedure: (§7) Purified mutants of human CPB (D253K; [G251K,D253R]; [G251N,D253R]; [I201S,D253K]; [G251N,D253K]; [Q54R,D145A,D253K]; [G251T,D253K]; [G251S,D253K]; [A248N,G251N,D253K]; [A248S,G251N,D253K] and [S205N,G251N,D253K]—described in Examples 3, 12, 13, 16, 28, 30, 31, 32 and 33) were assayed for their ability to convert hippuryl-L-glutamic acid (Hipp-Glu—Reference Example 1), hippuryl-L-aspartic acid (Hipp-Asp—Reference Example 2) and hippuryl-L-arginine (Sigma Chemical Company—cat no. H6625) to hippuric acid using a HPLC based assay similar to that described in Example 6.
(§8) Samples were incubated for 30 minutes at 37° C. The reactions were terminated by the addition of 500 μl of 40% methanol, 60% distilled water, 0.2% trifluoro acetic acid and the amount of hippuric acid generated was quantitated by HPLC as described in Example 6 but using a mobile phase of 20% methanol, 80% 50 mM phosphate buffer, pH 6.5. Hippuric acid was detected at 230 nm. The results are shown in Table 5 and are expressed as the percentage conversion of substrate into product in 30 minutes at 37° C.

[8] = Conversion of Hipp-Asp by purified HCPB mutants, 30 minutes, HPLC (Example 17); type: biochemical; details: 0.5 mM substrate, 30 minutes at 37° C.
Procedure: as §7, §8

[9] = Conversion of Hipp-Arg by purified HCPB mutants, 30 minutes, HPLC (Example 17); type: biochemical; details: 0.5 mM substrate, 30 minutes at 37° C.
Procedure: as §7, §8

[10] = Conversion of Hipp-Glu by periplasmic shockate of HCPB mutants, 24 h (Example 18); type: biochemical; details: shockate concentration in reaction mixture 50 %; 24 h at 37° C.
Procedure: (§9) The activity of [G251T,D253K]HCPB was measured using the assay conditions described in Example 17 but using either 50 μl of a neat or 1 in 10 or 1 in 100 dilution of [G251T,D253K]HCPB crude E.coli periplasmic shockate (shockate) sample in place of purified enzyme. Samples were incubated for 24 h at 37° C. […] For other HCPB mutants, the reaction volume was 250 μl and contained 125 μl of neat shockate or 1 in 50 dilution of shockate. The shockate samples were prepared as described in Example 16. The amount of Hippuric acid produced in 24 h was quantified by HPLC as described in Example 17 and the results are shown in Table 6 and are expressed as the percentage conversion of substrate into product in 24 h at 37° C.

[11] = Conversion of Hipp-Asp by periplasmic shockate of HCPB mutants, 24 h (Example 18); type: biochemical; details: shockate concentration in reaction mixture 50 %; 24 h at 37° C.
Procedure: as §9

[12] = Conversion of Hipp-Arg by periplasmic shockate of HCPB mutants, 24 h (Example 18); type: biochemical; details: shockate concentration in reaction mixture 50 %; 24 h at 37° C.
Procedure: as §9

[13] = Conversion of prodrug of Example 24 to drug of Example 25 by HCPB mutants, HPLC (Example 20); type: biochemical; details: enzyme 15 μg/ml; 0.5 mM prodrug of Example 24; 5 minutes at 37° C.
Procedure: The reaction was stopped by adding MeCN (500 μl) plus 0.2% Trifluoroacetic acid. The amount of drug produced was then quantified by HPLC.
HPLC separation was carried out as described in Example 6 except that a mobile phase of 70% MeCN, 30% distilled water and 0.1% trifluoroacetic acid was used to achieve separation of prodrug (retention time 3.8 minutes) and drug (retention time 4.9 minutes) and the compounds were detected at 260 nm. The amount of drug produced was quantified from calibration curves generated with known amounts of drug.
The amount of [Q54R,D145A,D253K]HCPB and [G251T,D253K]HCPB mutants was reduced to 0.75 μg in the reaction mixture.

[14] = test system: LoVo colorectal tumour cells
[15] = Activity against Hipp-Arg in crude E. coli periplasmic shockate relative to mature HCPB (Example 16); type: biochemical
Excerpt: A number of other mutant HCPBs have been constructed in a similar manner to the methods described in Reference Examples 7 and 8, and Examples 12, 13, 14 and 15. In each case oligos were constructed to introduce specific changes in the gene sequence by methods similar to those described above. In some cases additional mutations were identified upon complete sequencing of the mutated gene, and these were presumably introduced during the PCR reactions. Mutants with enzyme activity against substrate analogues (see Example 18 below) have been identified, and examples of these are given in Table 4 below. […] This material is subsequently referred to as periplasmic shockate or shockate and is prepared by the following procedure.
1. A single colony was used to inoculate 75 ml of L-broth nutrient media containing 10 μg/ml tetracycline and arabinose to a final concentration of 0.01% (w/v). […]
The activity of [G251T,D253K]HCPB was measured using the assay conditions described in Example 17 but using either 50 μl of a neat or 1 in 10 or 1 in 100 dilution of [G251T,D253K]HCPB crude E.coli periplasmic shockate (shockate) sample in place of purified enzyme. […] The amount of Hippuric acid produced in 24 h was quantified by HPLC as described in Example 17 and the results are shown in Table 6 and are expressed as the percentage conversion of substrate into product in 24 h at 37° C.

O=C(O)CCC(=O)Oc1ccc(N(CCCl)CCCl)cc1
melting point: 98 to 100 °C

B1: D253K HCPB: mature HCPB with aspartate 253 changed to lysine, C-terminal (His)6-c-myc tag (protein, UniProt P15086 111-417, looked up, variant D253K)
Carboxypeptidase B: ATGHSYEKYNKWETIEAWTQQVATENPALISRSVIGTTFEGRAIYLLKVGKAGQNKPAIFMDCGFHAREWISPAFCQWFVREAVRTYGREIQVTELLDKLDFYVLPVLNIDGYIYTWTKSRFWRKTRSTHTGSSCIGTDPNRNFDAGWCEIGASRNPCDETYCGPAAESEKETKALADFIRNKLSSIKAYLTIHSYSQMMIYPYSYAYKLGENNAELNALAKATVKELASLHGTKYTYGPGATTIYPAAGGSKDWAYDQGIRYSFTFELRDTGRYGFLLPESQIRATCEETFLAIKYVASYVLEHLY
modifications: (His)6-c-myc tag
Hipp-Asp (% conversion to Hippuric acid) [1]: 78%
Hipp-Glu (% conversion to Hippuric acid) [2]: 91%
Hipp-Arg (% conversion to Hippuric acid) [3]: <2%
Km [4]: 2.7 mM
kcat, Hipp-Asp [4]: 0.26 s⁻¹
Km [5]: 5.3 mM
kcat, Hipp-Glu [5]: 3.8 s⁻¹
kcat, glutamic acid prodrug [6]: 0.016 s⁻¹
Vmax, glutamic acid prodrug ([6]; enzyme 0.25 mg/ml): 0.000117 mM/s
Hipp-Glu (% conversion) ([7]; enzyme 2.5 μg/ml): 14.6%
Hipp-Glu (% conversion) ([7]; enzyme 25 μg/ml): 79%
Hipp-Asp (% conversion) ([8]; enzyme 2.5 μg/ml): 2.9%
Hipp-Asp (% conversion) ([8]; enzyme 25 μg/ml): 22%
Hipp-Arg (% conversion) ([9]; enzyme 2.5 μg/ml): 0%
Hipp-Arg (% conversion) ([9]; enzyme 25 μg/ml): 0%
Hipp-Glu (% conversion) [10]: 7.4%
Hipp-Asp (% conversion) [11]: 2.0%
Hipp-Arg (% conversion) [12]: 0%
Prodrug Hydrolysis (%) [13]: 70.4%
drug concentration at end of reaction [13]: 0.352 mM
cytotoxicity of the glutamic acid prodrug with enzyme added ([14]; 100 μg enzyme added to assay wells containing glutamic acid prodrug): comparable to that of the active drug
toxicity of prodrug of Example 21 with enzyme added ([14]; 2.4 to 11.75 μg/ml enzyme added to prodrug 500 μM, FIG. 16): matched that seen with 200 μM of the active drug

B2: C288A: HCPB mutant with C288A (protein, UniProt P15086 111-417, looked up, variant C288A)
Carboxypeptidase B: B1 Carboxypeptidase B with K253D, C288A
Hipp-Arg, activity relative to mature HCPB [15]: d (activity 25% of mature HCPB (described in Reference Examples 7 and 8))

B3: C288S: HCPB mutant with C288S (protein, UniProt P15086 111-417, looked up, variant C288S)
Carboxypeptidase B: B1 Carboxypeptidase B with K253D, C288S
Hipp-Arg, activity relative to mature HCPB [15]: c (activity 75% of mature HCPB (described in Reference Examples 7 and 8))
